Experimental data as given in publication PMC3685266.

Tests used:
[1] = target: SecA_(Δcys), SecA without cysteine residues (E. coli) (UniProt P10408); assay: steady-state ATPase activity titration; 80 nM SecA, 1 mM ATP, TKM buffer, increasing vesicles reconstituted with purified SecYEG, with 0.6 μM proOmpA_(Δcys), with or without 10 mM DTT
[2] = target: SecA_(D337C/K482C), intramolecularly disulfide cross-linked (clamp closed) (E. coli) (UniProt P10408); assay: steady-state ATPase activity titration; 0.15 μM SecA, 1 mM ATP, TKM buffer pH 7.5, 0.03% C12E9, 25°C, increasing purified detergent-solubilized SecYEG, with or without 10 mM DTT; apparent affinity from a ligand-binding fit

fold increase in affinity in the presence of proOmpA [1]: 5 fold
fold increase in apparent affinity over the SecA (Δcys) control [2]: 500 fold
Substance: SecYEG complex (from UniProt P0AGA2 1-443; P0AG96 1-127; P0AG99 1-110)
